Source: patent publication US7655420B2, “Methods to increase or decrease bone density” (Celltech R & D, Inc., priority 2002, dated 2010)

Legend:
[1] = system: type I collagen synthesis in hMSC cells; assay: synthesis of collagen type I in hMSC cells (Prolagen C ELISA); assay type: cell-based, human
Experimental: FIG. 13 illustrates that partially purified preparations of human sclerostin reduce the synthesis of type I collagen by about 50% in cells treated with 10 μg/ml of sclerostin (p<0.001 to control). hMSC cells were cultured in Osteoblast-Inducing media and treated with partially-purified sclerostin protein or proteins purified from Sf9 conditioned media (Control) for 21 days. Sclerostin or Control at the indicated concentrations was added 8 days after plating.
hMSC cells were plated in 96-well tissue culture dishes at a density of 10,000 cells/cm^2 in Osteoblast-Inducing medium. Partially purified preparations of baculovirus-expressed sclerostin protein were prepared in sterile PBS using NAP-5 columns prior to use. Human sclerostin protein (0 to 30 μg/ml) or an equal volume of Sf9 conditioned media (Control) was added to cultures of hMSC cells at various times after plating (1 day, 8 days, 15 days, or 21 days). The effects of sclerostin on osteoblastic differentiation were assessed by measuring alkaline phosphatase activity (ALP, determined in cell layers using DEAA buffer (Pierce) containing 0.5% NP-40 and 10 mM p-nitrophenylphosphate), synthesis of collagen type I (Prolagen C ELISA), and calcium deposition for mineralization (colorimetric assay of acid lysates of cell layers, Sigma).

[2] = system: BMP-6 stimulated alkaline phosphatase activity; assay: BMP-6 stimulated alkaline phosphatase activity in mouse mesenchymal C3H10T1/2 cells; assay type: cell-based
Experimental: C3H10T1/2 cells (ATCC Deposit No. CCL-226) were plated in 96-well dishes at a density of 25,000 cells per well in complete growth medium (DMEM with high glucose and glutamine supplemented with 10% FCS, 1% penicillin/streptomycin, 0.1 mM non-essential amino acids, 1 mM sodium pyruvate, 55 μM β-mercaptoethanol, and 20 mM HEPES, pH 7.3). C3H10T1/2 cells were used in a short-term (72 hr) assay to determine the effects of human sclerostin protein on BMP-induced ALP activity. Partially purified preparations of bacculovirus-expressed sclerostin protein were prepared in sterile PBS using NAP-5 columns prior to use. Sclerostin protein (0 to 50 μg/ml) or an equal volume of Sf9 conditioned media (control) was pre-incubated with 500 ng/ml BMP-6 for 1 hr prior to addition to cells. For comparison, similar incubations were carried out with anti-BMP-6 antibody and noggin. Cells were harvested 72 hrs later for determination of ALP activity.
To test the specificity of the sclerostin effect, human sclerostin that was synthesized with a FLAG tag, was pre-incubated for 2 hrs at 4° C. with an anti-FLAG antibody coupled to agarose beads. The mixture was then spun down at 10,000×g for 15 minutes at 4° C. and the supernatant treated as “sclerostin protein” in the above assay.

B1: sclerostin: partially purified baculovirus-expressed human sclerostin protein, SOST gene product (SEQ ID NO:3); also made with a FLAG tag (protein, listed as Homo sapiens)
chain: MQLPLALCLVCLLVHTAFRVVEGQGWQAFKNDATEIIPELGEYPEPPPELENNKTMNRAENGGRPPHHPFETKDVSEYSCRELHFTRYVTDGPCRSAKPVTELVCSGQCGPARLLPNAIGRGKWWRPSGPDFRCIPDRYRAQRVQLLCPGGEAPRARKVRLVASCKCKRLTRFHNQSELKDFGTEAARPQKGRKPRPRARSAKANQAELENAY
modifications: optional FLAG tag
reduction of synthesis of type I collagen ([1]; hMSC cells, 10 μg/ml of sclerostin, 21 days, p<0.001 to control): about 50% | synthesis of collagen type I, dose dependence ([1]; hMSC cultures): decreased in a dose-dependent manner | stimulatory effect of BMP-6 on alkaline phosphatase activity (antagonism) ([2]; 500 ng/ml BMP-6, 72 hrs): antagonized | antagonism of BMP-6 after immuno-depletion with anti-Flag M2 antibody/agarose complex ([2]; Flag-tagged sclerostin preparation): completely abolished | IC50, decrease of BMP-6 stimulated alkaline phosphatase activity ([2]; pre-incubated with 500 ng/ml BMP-6 for 1 hr, 72 hrs): 10 µg/mL
